The target of assay [1] is CD200R (Mus musculus) (UniProt Q9ES57). The following applies: cited from earlier work.
Assay [2] concerns the target mouse CD200 extracellular region (residues 1-232) tagged with rat CD4 domains 3 and 4 and a biotinylation site, wild type (mouse) (UniProt O54901). Description: SPR; BIAcore 3000, 25°C, HBS; wild-type and mutant CD200 CD4-Bio and CD4 control (about 650 RU each) held by OX68 mAb amine coupled to a CM5 chip; serial dilutions of soluble CD200R injected (KD from equilibrium binding), mutants tested with CD200R at 0.5 μM and given as percent of wild type.

The target of assay [3] is mouse CD200 (residues 1-232) CD4-Bio, mutant Q27K (mouse) (UniProt O54901). Described as above.
Assay [4] concerns the target CD200R (Mus musculus) (UniProt Q9ES57). The following applies: cited from earlier work. This is another data set of the same source.
Assay [5] deals with mouse CD200RLa (residues 1-237) CD4-Bio, mutant L114F (mouse, UniProt Q6XJV4 26-237, L114F). Briefly: SPR; BIAcore 3000, 25°C; CD200R and wild-type and mutant CD200RLa CD4-Bio held by OX68 on a CM5 chip; increasing concentrations of CD200 injected; KDs by nonlinear curve fitting. The following applies: one partner purified.
In assay [6] the target is T1, mouse CD200R (residues 1-232) CD4-Bio chimeric protein (mouse, UniProt Q9ES57 26-232).
T1 chain: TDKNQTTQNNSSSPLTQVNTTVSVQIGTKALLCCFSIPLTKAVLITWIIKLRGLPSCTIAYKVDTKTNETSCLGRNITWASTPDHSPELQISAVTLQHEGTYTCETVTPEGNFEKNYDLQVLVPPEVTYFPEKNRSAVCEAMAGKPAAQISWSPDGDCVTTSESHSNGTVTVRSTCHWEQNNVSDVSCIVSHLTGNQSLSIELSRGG
Description: SPR.

For assay [7], the target named is T2, mouse CD200RLa (residues 1-237) CD4-Bio chimeric protein, wild type (mouse).
T2 chain: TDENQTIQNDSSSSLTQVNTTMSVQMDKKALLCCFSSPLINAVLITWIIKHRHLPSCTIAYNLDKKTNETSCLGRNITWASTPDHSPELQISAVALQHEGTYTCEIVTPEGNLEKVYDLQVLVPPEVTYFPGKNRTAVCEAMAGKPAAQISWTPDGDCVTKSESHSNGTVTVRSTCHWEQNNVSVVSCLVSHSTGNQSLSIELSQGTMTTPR
Briefly: SPR.

Assay [8] deals with T3, mouse CD200RLa (residues 1-237) CD4-Bio, triple mutant N63K, K66T, and L114F (mouse).
T3 chain: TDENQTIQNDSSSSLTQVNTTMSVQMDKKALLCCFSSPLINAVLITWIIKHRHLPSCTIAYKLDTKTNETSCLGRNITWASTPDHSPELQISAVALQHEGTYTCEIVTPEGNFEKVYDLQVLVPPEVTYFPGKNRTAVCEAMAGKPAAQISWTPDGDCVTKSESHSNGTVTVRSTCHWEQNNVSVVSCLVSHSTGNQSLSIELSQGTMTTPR
Briefly: SPR.

In assay [9] the target is mouse CD200RLa (residues 1-237) CD4-Bio, double mutant N63K K66T (mouse). Briefly: SPR; BIAcore 3000, 25°C; CD200R and wild-type and mutant CD200RLa CD4-Bio held by OX68 on a CM5 chip; increasing concentrations of CD200 injected; KDs by nonlinear curve fitting.

“And” between values parts separate entries of the source, which are not always exact repeats. Equal entries are not always repeated. Where two headings read alike, the source gives them in different places.

On to CD200 (from UniProt P41217), for which the Kd with CD200R (Mus musculus) [1] was 7 µM.
In assay [2], “mouse CD200R extracellular region with C-terminal polyhistidine tag (receptor)” gave a Kd of 0.5 µM. The percent of wild-type binding response in assay [3] was found to be 150%.
On to CD200 (from UniProt O54901), for which the Kd with CD200R (Mus musculus) [4] was 4 µM.

B1: mouse CD200 extracellular region with C-terminal polyhistidine tag (ligand, UniProt O54901 31-232, looked up)
chain: QVEVVTQDERKALHTTASLRCSLKTSQEPLIVTWQKKKAVSPENMVTYSKTHGVVIQPAYKDRINVTELGLWNSSITFWNTTLEDEGCYMCLFNTFGSQKVSGTACLTLYVQPIVHLHYNYFEDHLNITCSATARPAPAISWKGTGTGIENSTESHFHSNGTTSVTSILRVKDPKTQVGKEVICQVLYLGNVIDYKQSLDKG
modifications: N-linked sugars cut back to N-acetyl-glucosamine by Endoglycosidase Hf (crystallised form); NH2 terminus presumably cyclized glutamine (pyroglutamic acid)
notes: signal peptide in the construct; mouse CD200, extracellular region (two Ig-like domains), residues 1-232 of NP_034948; the range counts on the precursor; Protein in the flow-through of the concanavalin A column was crystallised; protein eluted from the column was used as the soluble ligand in SPR; also called soluble CD200; recombinant CD200
With B1, the Kd in [5] is 4.2 µM; in [6] it was 0.6 µM; in [7], > 40 µM; in [8], 1.1 µM and 0.9 µM; in [9], 18.4 µM.

The values above are taken from publication PMC3664923, “Structures of CD200/CD200 Receptor Family and Implications for Topology, Regulation, and Evolution” (Structure(London, England:1993), 2013).
